Earlier results in publication PMC7424061.

Target: p53 TAD (Homo sapiens) (UniProt P04637)
Sequence (P04637 1-61): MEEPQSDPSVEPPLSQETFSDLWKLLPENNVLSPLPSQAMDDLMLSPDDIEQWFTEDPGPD

Sequence of azurin (P00282 21-148): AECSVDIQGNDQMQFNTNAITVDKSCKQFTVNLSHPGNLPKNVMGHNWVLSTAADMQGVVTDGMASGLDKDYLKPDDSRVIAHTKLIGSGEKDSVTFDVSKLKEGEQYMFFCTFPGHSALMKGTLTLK

With azurin (from UniProt P00282) as the substance, how does the Kd read?
The Kd was 7 µM.
